Data reported in patent US20030198640A1 (Human Genome Sciences, published 2003).

B3: human LIGHT protein, natural secreted form (aa 83-240), E. coli (ligand)
chain: LIQERRSHEVNPAAHLTGANSSLTGSGGPLLWETQLGLAFLRGLSYHDGALVVTKAGYYYIYSKVQLGGVGCPLGLASTITHGLYKRTPRYPEELELLVSQQSPCGRATSSSRVWWDSSFLGGVVHLEAGEEVVVRVLDERLVRLRDGTRSYFGAFMV
notes: also called soluble LIGHT
B9: full-length human TR6 (without Fc), baculovirus/Sf9 (receptor)
chain: VAETPTYPWRDAETGERLVCAQCPPGTFVQRPCRRDSPTTCGPCPPRHYTQFWNYLERCRYCNVLCGEREEEARACHATHNRACRCRTGFFAHAGFCLEHASCPPGAGVIAPGTPSQNTQCQPCPPGTFSASSSSSEQCQPHRNCTALGLALNVPGSSSHDTLCTSCTGFPLSTRVPGAEECERAVIDFVAFQDISIKRLQRLLQALEAPEGWGPTPRAGRAALQLKLRRRLTELLGAQDGALLVRLLQALRVARMPGLERSVRERFLPVH
notes: also called soluble TR6; non-Fc form of TR6

Experiments:
[1] = biological target: T1, full length TNF-gamma-beta expressed on the cell surface (HEK293F stable transfectants); cells transfected … (human, UniProt O95150 1-251); assay: flow cytometry on HEK293F cells expressing full length TNF-gamma-beta
T1 construct: also called TNF-gamma-beta expressing cells
T1 sequence: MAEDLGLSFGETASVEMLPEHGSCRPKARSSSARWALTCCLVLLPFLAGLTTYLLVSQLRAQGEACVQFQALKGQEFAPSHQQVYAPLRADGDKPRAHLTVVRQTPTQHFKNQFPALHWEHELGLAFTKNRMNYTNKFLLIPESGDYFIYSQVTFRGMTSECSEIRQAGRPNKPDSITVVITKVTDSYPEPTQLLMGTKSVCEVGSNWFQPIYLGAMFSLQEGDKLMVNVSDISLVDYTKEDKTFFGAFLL
Protocol: (§1) These cells were used to screen the Fc-fusion form of the extracellular domain of TNFR family members, including TNFR1, Fas, HveA, DR3, DR4, DR5, DR6, DcR1, DcR2, TR6, OPG, RANK, AITR, TAC1, CD40, and OX40. […] TR6 has been previously described as a decoy receptor (Pitti et al., Nature 396:699-703 (1998); Yu et al., J. Biol. Chem. 274:13733-6 (1999)) capable of competing with Fas and HveA for binding of FasL and LIGHT, respectively.
(§2) One million cells, in 0.1 ml of FACS buffer (PBS, 0.1% BSA, 0.1% NaN₃), were incubated with 0.1-1 microgram of protein or antibody at RT for 15 min. The cells were washed with 3 ml of FACS buffer, reacted with biotinylated primary antibody, and stained with PE-conjugated secondary antibody at RT for 15 min. Cells were then washed again, resuspended in 0.5 microgram/ml of propidium iodide, and live cells were gated and analyzed on a FACScan using the CellQuest software (BD Biosciences).

[2] = biological target: T2, TR2-Fc (extracellular domain of human TR2, aa 1-192, fused to the Fc domain of human IgG1) (human, UniProt Q92956 39-192); assay: BIAcore, TR2-Fc immobilised; TR2-Fc, not TR6
T2 construct: range 1-192; also called HveA-Fc; not shown: Fc domain of human IgG1
T2 sequence (looked up): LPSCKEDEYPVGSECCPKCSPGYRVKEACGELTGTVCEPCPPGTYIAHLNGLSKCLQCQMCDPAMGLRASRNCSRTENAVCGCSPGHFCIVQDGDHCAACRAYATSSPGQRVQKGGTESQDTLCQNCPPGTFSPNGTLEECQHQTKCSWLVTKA

[3] = biological target: B9; assay: BIAcore; non-Fc TR6
[4] = biological target: T3, TR6-Fc (full-length human TNFR-6 alpha, SEQ ID NO:6 aa 1-300, fused to the Fc domain of human IgG1) (human, UniProt O95407 30-300); assay: BIAcore; TR6-Fc form
T3 construct: also called TNFR-6 alpha Fc fusion protein; DcR3-Fc; not shown: Fc domain of human IgG1
T3 sequence: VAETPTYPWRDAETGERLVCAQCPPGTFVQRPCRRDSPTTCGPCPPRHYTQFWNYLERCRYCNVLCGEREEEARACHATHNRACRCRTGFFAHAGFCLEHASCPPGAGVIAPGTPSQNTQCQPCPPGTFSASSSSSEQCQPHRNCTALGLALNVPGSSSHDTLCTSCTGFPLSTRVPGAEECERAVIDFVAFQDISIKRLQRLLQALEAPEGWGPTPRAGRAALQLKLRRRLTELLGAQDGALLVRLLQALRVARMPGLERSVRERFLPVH
Protocol: (§3) The amount of bound protein was determined during washing of the flow cell with HBS buffer (10 mM HEPES, pH 7.4, 150 mM NaCl, 3.4 mM EDTA, 0.005% Surfactant P20). The flow cell surface was regenerated by washing off the bound proteins with 20 microliters of 10 mM glycine-HCl pH 2.3. […] The on- and off-rates were determined according a kinetic evaluation program in the BiaEvaluation 3 software using a 1:1 binding model and the global analysis method.
(§4) We determined the kinetics of binding of LIGHT to both the Fe and non-Fc versions of TR6 according to BIAcore analysis.

[5] = biological target: T3, TR6-Fc (full-length human TNFR-6 alpha, …); assay: flow cytometry on 293 cells overexpressing LIGHT
Protocol: Cells were incubated with Fc-fusion proteins in 100 ul FACS buffer (d-PBS with 0.1% sodium azide and 0.1% BSA) for 15-20 minutes at room temperature. The cells were washed once and reacted with goat F (ab)₂ anti-human IgG (Southern Biotechnology, Birmingham, Ala.) for 15 minutes at room temperature. After wash, the cells were resuspended in 0.5 ug/ml propidium iodide, and live cells were gated and analyzed on a FACScan (BD Biosciences, Mansfield, Mass.).
This was tested on 293 cells overexpressing LIGHT according to flow cytometry.

[6] = biological target: B9; assay: flow cytometry competition on activated human T cells
[7] = biological target: T1, full length TNF-gamma-beta expressed on …; assay: flow cytometry competition on HEK293F cells expressing TNF-gamma-beta; competitor of DR3-Fc
Protocol: as §1, §2

[8] = biological target: B3; assay: BIAcore
Protocol: as §3, §4

[9] = biological target: T4, DR3, full length, on cells (transfected 293T cells; naturally expressed on TF-1 cells and T cells) (human, UniProt Q93038 25-417); assay: cell-based or functional assay
T4 sequence: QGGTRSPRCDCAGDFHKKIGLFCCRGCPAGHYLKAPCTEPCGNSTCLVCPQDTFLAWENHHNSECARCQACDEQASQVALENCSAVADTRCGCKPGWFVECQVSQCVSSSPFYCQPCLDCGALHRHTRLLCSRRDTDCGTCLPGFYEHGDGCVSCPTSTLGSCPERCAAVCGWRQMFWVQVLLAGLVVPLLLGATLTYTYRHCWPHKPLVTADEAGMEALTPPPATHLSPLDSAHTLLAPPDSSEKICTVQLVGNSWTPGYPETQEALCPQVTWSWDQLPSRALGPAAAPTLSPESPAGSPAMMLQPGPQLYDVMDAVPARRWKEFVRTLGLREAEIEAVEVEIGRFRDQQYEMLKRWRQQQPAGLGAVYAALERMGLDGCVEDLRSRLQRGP

B1: TNFR1-Fc (Fc fusion, UniProt P19438 30-211, looked up)
chain: LVPHLGDREKRDSVCPQGKYIHPQNNSICCTKCHKGTYLYNDCPGPGQDTDCRECESGSFTASENHLRHCLSCSKCRKEMGQVEISSCTVDRDTVCGCRKNQYRHYWSENLFQCFNCSLCLNGTVHLSCQEKQNTVCTCHAGFFLRENECVSCSNCKKSLECTKLCLPQIENVKGTEDSGTT
notes: extracellular domain; not shown: Fc part
Does B1 bind [1]?
Result: no binding

B2: OPG (Fc-fusion form) (Fc fusion, UniProt O00300 22-194, looked up)
chain: ETFPPKYLHYDEETSHQLLCDKCPPGTYLKQHCTAKWKTVCAPCPDHYYTDSWHTSDECLYCSPVCKELQYVKQECNRTHNRVCECKEGRYLEIEFCLKHRSCPPGFGVVQAGTPERNTVCKRCPDGFFSNETSSKAPCRKHTNCSVFGLLLTQKGNATHDNICSGNSESTQK
notes: as for B1
Does B2 bind [1]?
Result: no binding

Which results are given for B3?
Kd [2]: 4.56 nM; Kd [3]: 14.3 nM; koff [3]: 0.00483 s⁻¹; kon [3]: 338000 M⁻¹ s⁻¹; Kd [4]: 5.46 nM; koff [4]: 0.0023 s⁻¹; kon [4]: 422000 M⁻¹ s⁻¹

B4: RANK (Fc-fusion form of the extracellular domain) (Fc fusion, UniProt Q9Y6Q6 30-212, looked up)
chain: IAPPCTSEKHYEHLGRCCNKCEPGKYMSSKCTTTSDSVCLPCGPDEYLDSWNEEDKCLLHKVCDTGKALVAVVAGNSTTPRRCACTAGYHWSQDCECCRRNTECAPGLGAQHPLQLNKDTVCKPCLAGYFSDAFSSTDKCRPWTNCTFLGKRVEHHGTEKSDAVCSSSLPARKPPNEPHVYLP
notes: as for B1
Does B4 bind [1]?
Result: no binding

B5: OX40 (Fc-fusion form of the extracellular domain) (Fc fusion, UniProt P43489 29-214, looked up)
chain: LHCVGDTYPSNDRCCHECRPGNGMVSRCSRSQNTVCRPCGPGFYNDVVSSKPCKPCTWCNLRSGSERKQLCTATQDTVCRCRAGTQPLDSYKPGVDCAPCPPGHFSPGDNQACKPWTNCTLAGKHTLQPASNSSDAICEDRDPPATQPQETQGPPARPITVQPTEAWPRTSQGPSTRPVEVPGGRA
notes: as for B1
Does B5 bind [1]?
Result: no binding

B6: full-length human LIGHT on cells (293F stable transfectants; endogenous LIGHT on activated human T cells) (ligand)
chain: MEESVVRPSVFVVDGQTDIPFTRLGRSHRRQSCSVARVGLGLLLLLMGAGLAVQGWFLLQLHWRLGEMVTRLPDGPAGSWEQLIQERRSHEVNPAAHLTGANSSLTGSGGPLLWETQLGLAFLRGLSYHDGALVVTKAGYYYIYSKVQLGGVGCPLGLASTITHGLYKRTPRYPEELELLVSQQSPCGRATSSSRVWWDSSFLGGVVHLEAGEEVVVRVLDERLVRLRDGTRSYFGAFMV
notes: also called cell membrane LIGHT; LIGHT-transfectants
What does the source list for B6?
binding result [5]: binds; binding result [6]: binds

B7: DcR1 (Fc-fusion form of the extracellular domain) (Fc fusion, UniProt O14798 26-221, looked up)
chain: ATTARQEEVPQQTVAPQQQRHSFKGEECPAGSHRSEHTGACNPCTEGVDYTNASNNEPSCFPCTVCKSDQKHKSSCTMTRDTVCQCKEGTFRNENSPEMCRKCSRCPSGEVQVSNCTSWDDIQCVEEFGANATVETPAAEETMNTSPGTPAPAAEETMNTSPGTPAPAAEETMTTSPGTPAPAAEETMTTSPGTPA
notes: as for B1
Does B7 bind [1]?
Result: no binding

B8: DcR2 (Fc-fusion form of the extracellular domain) (Fc fusion, UniProt Q9UBN6 56-211, looked up)
chain: ATIPRQDEVPQQTVAPQQQRRSLKEEECPAGSHRSEYTGACNPCTEGVDYTIASNNLPSCLLCTVCKSGQTNKSSCTTTRDTVCQCEKGSFQDKNSPEMCRTCRTGCPRGMVKVSNCTPRSDIKCKNESAASSTGKTPAAEETVTTILGMLASPYH
notes: as for B1
Does B8 bind [1]?
Result: no binding

How did the “molar ratio TR6 to DR3-Fc at which no DR3-Fc binding was detected” value [7] turn out when B9 was run?
Its value is 2 molar ratio (TR6:DR3-Fc).

And the “fold off rate against TR6-Fc” value [8]?
Its value is ~2 fold.

B10: AITR (Fc-fusion form of the extracellular domain) (Fc fusion, UniProt Q9Y5U5 26-162, looked up)
chain: QRPTGGPGCGPGRLLLGTGTDARCCRVHTTRCCRDYPGEECCSEWDCMCVQPEFHCGDPCCTTCRHHPCPPGQGVQSQGKFSFGFQCIDCASGTFSGGHEGHCKPWTDCTQFGFLTVFPGNKTHNAVCVPGSPPAEP
notes: as for B1
Does B10 bind [1]?
Result: no binding

B11: TNF-gamma-β (form used not stated) (ligand)
chain: LKGQEFAPSHQQVYAPLRADGDKPRAHLTVVRQTPTQHFKNQFPALHWEHELGLAFTKNRMNYTNKFLLIPESGDYFIYSQVTFRGMTSECSEIRQAGRPNKPDSITVVITKVTDSYPEPTQLLMGTKSVCEVGSNWFQPIYLGAMFSLQEGDKLMVNVSDISLVDYTKEDKTFFGAFLL
Which “IFNγ production by anti-CD2 stimulated lamina propria mononuclear cells (ELISA)” value [9] does the source give for B11 here?
The value was ≥ 2 fold.
